Results from paper PMC3969221.

What was measured:
[1] = target: Manduca sexta cadherin protein fragment (CR7–CR12) (Manduca sexta); test: ELISA; 1 μg of cadherin fragment coated per well; toxin or protoxin dilutions in PBS, 1 h at 37°C; detected with polyclonal anti-Cry1Ab antibody; Scatchard analysis; apparent Kd
[2] = target: trypsin-activated Cry1AbMod toxin (Bacillus thuringiensis) (UniProt P0A370)

Q: “Cry1Ab protoxin (from UniProt P0A370 1-1155) (natural protein)” was tested. Which Kd [1] did it give?
A: The Kd was 6.8 nM.

Q: With “trypsin-activated Cry1AbMod toxin (from UniProt P0A370 1-1155) (domain or fragment)” as the substance, how does the LC50 (50% lethal concentration) against M. sexta neonatal larvae, mortality after 7 days [2] read?
A: The LC50 (50% lethal concentration) against M. sexta neonatal larvae, mortality after 7 days was 15 ng/cm^2.
